Reference: publication PMC6028451, “Cotranslational protein targeting to the membrane: Nascent-chain transfer in a quaternary complex formed at the translocon” (Scientific Reports, 2018)

Molecular target: T1, SecYEG translocon embedded in phospholipid-containing nanodiscs (Escherichia coli, UniProt P0AGA2 1-443; P0AG96 1-127; P0AG99 1-110)
T1 construct: SecY, Escherichia coli; SecE, Escherichia coli; SecG, Escherichia coli; membrane scaffold protein MSP1D1, the belt of the nanodisc; the disc holds E. coli total lipids; also called non-mutated SecYEG; copies: 1 + 1 + 1 + 2
Assay: not stated; proOmpA75-RNC with SecYEG in nanodiscs (Supplementary Fig. S4b)
Settings: both partners purified

Kd: 15 ± 3 nM
B1: proOmpA75-RNC: ribosome-nascent-chain complex carrying the nascent chain of outer-membrane protein A (complex)
chain: MKKTAIAIAVALAGFATVAQAAPKDNTWYTGAKLGWSQYHDTGFINNNGPTHENQLGAGAFGGYQVNPYVGFEMG
